The source of these data is patent publication US20080131962.

In series [1] the test system is ZFN pair E490K/E490K (synthetic construct). The experiment in a line: cleavage_in_vitro. As to conditions: same variant on L and R.
Series [2] relates to ZFN pair E490K/Q486E (synthetic construct). The experiment in a line: cleavage_in_vitro. As to conditions: average of both orientations.
Series [3] has as its system ZFN pair E490K/Q486E:I499L (synthetic construct). The experiment in a line: cleavage_in_vitro. Conditions: average of both orientations.
Series [4] relates to ZFN pair E490K/wt (synthetic construct). The experiment in a line: cleavage_in_vitro. Conditions: average of both orientations.
In series [5] the test system is ZFN pair E490K:I538K/Q486E (synthetic construct). As to the kind of experiment: cleavage_in_vitro. As to conditions: average of both orientations.
Series [6] has as its system ZFN pair E490K:I538K/wt (synthetic construct). As to the kind of experiment: cleavage_in_vitro. As to conditions: average of both orientations.
The subject of series [7] is ZFN pair L+/R+ (E490K:I538K both) (synthetic construct). As to the kind of experiment: cleavage_in_vitro. As to conditions: cleavage lost through lack of dimerization, not of ZFP binding.
Series [8] has as its system ZFN pair L+/R- (L-E490K:I538K, R-Q486E:I499L) (synthetic construct). The experiment in a line: cleavage_in_vitro.
In series [9] the test system is ZFN pair L-/R+ (L-Q486E:I499L, R-E490K:I538K) (synthetic construct). The experiment in a line: cleavage_in_vitro. As to conditions: 2 mM MgCl2, 37 C 2 h.
Series [10] concerns ZFN pair L-/R- (Q486E:I499L both) (synthetic construct). The experiment in a line: cleavage_in_vitro. Conditions: cleavage lost through lack of dimerization, not of ZFP binding.
Series [11] concerns ZFN pair Lwt/Rwt (wild-type FokI cleavage domains) (synthetic construct). The experiment in a line: cleavage_in_vitro. Conditions: six-fold diluted ZFN, FokI buffer pH 8.5, 2 mM MgCl2, 10 uM ZnCl2, 37 C 2 h.
Series [12] concerns ZFN pair Q486E/Q486E (synthetic construct). As to the kind of experiment: cleavage_in_vitro. As to conditions: same variant on L and R.
The subject of series [13] is ZFN pair Q486E/wt (synthetic construct). The experiment in a line: cleavage_in_vitro. Conditions: average of both orientations.
The subject of series [14] is ZFN pair Q486E:I499L/wt (synthetic construct). As to the kind of experiment: cleavage_in_vitro. As to conditions: average of both orientations; printed I449L in table.
In series [15] the test system is ZFN pair L+/R+ in cells (synthetic construct). The experiment in a line: cell_activity. Conditions: forced homodimer of cleavage domains.
The subject of series [16] is ZFN pair L+/R- in cells (synthetic construct). The experiment in a line: cell_activity. As to conditions: HEK293 GFP gene correction.
Series [17] has as its system ZFN pair L-/R+ in cells (synthetic construct). The experiment in a line: cell_activity. Conditions: HEK293 GFP gene correction.
Series [18] has as its system ZFN pair L-/R- in cells (synthetic construct). As to the kind of experiment: cell_activity. Conditions: forced homodimer of cleavage domains.
The test system of series [19] is ZFN pair Lwt/Rwt in cells (synthetic construct). The experiment in a line: cell_activity. As to conditions: HEK293 GFP gene correction.

For “TGTTCGGAGCCGCTTTAACCCACTCTGTGGAAGTGCT (double strand) [LR heterodimer target]”, the cleavage activity relative to wild type (fraction of wt/wt) in [1] was 0.96; in series [2], 0.96; in series [3], 0.97; in series [4], 1; in series [5], 0.32; in series [6], 0.74. The cleavage activity relative to wild type (fraction of wt/wt) in series [7] was determined as 0; in series [8] (average of L+/R- and L-/R+, printed I449L in table) it was 0.48; in [10], 0; in series [12], 0.19; in [13] it was 0.68; in [14] it was 0.48. For the same sequence, the activity in [8] (2 mM MgCl2, 37 C 2 h) came to 50 % cleaved; in [9], 50 % cleaved; in [11], 61 % cleaved.
As for “TGTTCGGAGCCGCTTTAACCCACTCTGTGGAAGTGCT (double strand) [IL2Rgamma ZFN target in eGFP reporter or endogenous locus]”, the activity (% GFP-positive cells) in series [15] worked out at 0.02; in series [16], 1.98; in series [17], 1.71; in series [18], 0.12; in series [19] it was 1.27.
